B1: Thyroid hormone receptor beta (Homo sapiens), P10828-1 (parent)
chain: MTPNSMTENGLTAWDKPKHCPDREHDWKLVGMSEACLHRKSHSERRSTLKNEQSSPHLIQTTWTSSIFHLDHDDVNDQSVSSAQTFQTEEKKCKGYIPSYLDKDELCVVCGDKATGYHYRCITCEGCKGFFRRTIQKNLHPSYSCKYEGKCVIDKVTRNQCQECRFKKCIYVGMATDLVLDDSKRLAKRKLIEENREKRRREELQKSIGHKPEPTDEEWELIKTVTEAHVATNAQGSHWKQKRKFLPEDIGQAPIVNAPEGGKVDLEAFSHFTKIITPAITRVVDFAKKLPMFCELPCEDQIILLKGCCMEIMSLRAAVRYDPESETLTLNGEMAVTRGQLKNGGLGVVSDAIFDLGMSLSSFNLDDTEVALLQAVLLMSSDRPGLACVERIEKYQDSFLLAFEHYINYRKHHVTHFWPKLLMKVTDLRMIGACHASRFLHMKVECPTELFPPLFLEVFED

Variants of: B1
Conditions: with ncoa3_human NCOA3, Q9Y6Q9

Row | effect of a mutation on the interaction | Variant
1 | increasing interaction | R243W
2 | decreasing interaction | E457Q
3 | disrupting interaction | K288I
4 | increasing interaction | P214R

Variants of: B1
Conditions: with ncor2_human NCOR2, Q9Y618

Row | effect of a mutation on the interaction | Variant
5 | increasing interaction | R243W
6 | decreasing interaction | A228G;H229G;T232A
7 | decreasing interaction | P214R
